In US6635802B1, “Nuclear transfer using cells cultured in serum starvation media containing apoptosis inhibitors” (The Texas A&M University System, priority 2000, dated 2003):

How the values were obtained:
Format in all cases: cell-based
[1] = tested on: Bovine embryonic fibroblasts (BEF); experiment: TUNEL assay (flow cytometry) of serum starved bovine embryonic fibroblasts; settings: MAC 0.7 pM, NAC 1 mM, GSH 2 mM; for 5-day Apoptosis (%): serum starvation 5 days, serum starved without inhibitor 15.0; for 10-day Apoptosis (%): serum starvation 10 days, serum starved without inhibitor 20.4
Description: Bovine embryonic fibroblasts (BEF) were isolated from the fetus with 3-5 cm crown-rump length. After two or three passages, cells were plated one million cells per plate (100 mm) with growth medium (DMEM) with 2 mM L-glutamine, 0.1 mM β-mercaptoethanol and 10% FBS. After 24 hours, cells were washed with PBS 3-5 times and then serum starvation medium with 0.5% FBS was added. In addition, cells were treated with serum starvation medium containing apoptosis inhibitors such as a2-macroglobulin (0.7 pM), N-acetylcysteine (1 mM) and glutathione (2 mM). Cells were treated with serum starvation with or without apoptosis inhibitors for 5 or 10 days. Then cells were trypsinized and counted.
After counting, cells were fixed and stained according to protocols with the APO-BRDU kit (Phoenix Flow Systems, San Diego, Calif.). Briefly, cells were fixed in 1% paraformaldehyde in PBS on ice for 15 minutes, washed in PBS, and fixed in 70% ethanol and stored at −20° C. until use. After removing the fixative, cells were washed twice and suspended in 50 μl of labeling solution containing Br-dUTP (bromolated deoxyuridine triphosphate) and TdT (terminal deoxynucleotidyl transferase) for 60 minutes at 37° C. TdT catalyzes the addition of Br-dUTP to the 3′-OH ends of DNA strand breaks in a template independent manner. To determine base line fluorescence, control cells were incubated without TdT. After rinsing, cells were incubated with an anti-BrdU monoclonal antibody conjugated to fluorescein for 30 minutes in the dark at room temperature; apoptotic cells which contain many free 3′-OH ends are intensely labeled, while non-apoptotic cells whose DNA is largely intact have little Br-dUTP incorporation and remain unlabeled. Following counterstaining with a propidium iodide/RNase A solution for 30 minutes in the dark, which allows simultaneous analysis of cell cycle position and apoptosis, cells were analyzed on a FACSCalibur™ flow cytometer (Becton Dickinson, San Jose, Calif.). Fluorescence emissions were measured at 582±21 nm for propidium iodide and 530±15 nm for fluorescein, without spectral compensation, after excitation at 488 nm by an argon-ion laser. For analysis, gates were set so that less than 2% of samples incubated without TdT were positive. Any event above this gate was deemed TUNEL positive for samples incubated with TdT.

porcine PGCs [2] = experiment: In vitro culture of porcine PGCs on STO feeder cells with apoptosis inhibitors; AP-stained colonies counted; settings: for Effect of timing of exposure on number of colonies, in words: all 8 days vs first 4 days vs last 4 days
Excerpt: Porcine fetuses were collected from hysterectomized uteri of four-way crossbred gilts (DeKalb, Ill.) between day 25 and 30 of pregnancy (estrus=day 0). Fetuses were washed in phosphate buffered saline supplemented with BSA (0.4%, Sigma St. Louis, Mo.) and penicillin/streptomycin (1%, Gibco BRL, Rockville, Md.) (PBS/BSA/PS). Urogenital ridges, appeared as longitudinal protrusions along the medial mesonephric surface, were isolated and washed in PBS/BSA/PS followed by several washes in PES medium before PGC collection. The PES medium was comprised of 50:50 mixture of Dulbecco's modified Eagle's medium (DMEM) and Ham's F10 medium supplemented with 15% fetal bovine serum (FBS), L-glutamine (2 mM), β-mercaptoethanol (0.1 mM), MEM non-essential amino acids (1%) and penicillin/streptomycin (1%). All media and supplements were purchased from Gibco BRL.
PGCs were isolated by incubation in 0.25% trypsin/1 mM EDTA solution (Gibco BRL) followed by gentle pipetting or by mechanical dissociation of ridges into small fragments followed by gentle pipetting. After tissue disruption, cells were centrifuged for 5 minutes at 250 rpm to remove tissue debris and clumps. The supernatant containing most the single cells was collected and centrifuged at 1000 rpm for 10 minutes.
PGCs were resuspended with PES medium containing cytokines, such as soluble recombinant human stem cell factor (SCF; 40 ng/ml), human basic fibroblast growth factor (bFGF; 20 ng/ml), and human leukemia inhibitory factor (LIF; 20 ng/ml). All cytokines were obtained from R&D Systems (Minneapolis, Minn.). Cell suspensions were plated on irradiated mouse STO feeder cells (3×10^6 cells per 35 mm well), prepared as previously described (Piedrahita et al., 1998) and cultured in humidified environment of 5% CO2 in air, 38° C. PGC-derived colonies with ES-like morphology after 7-10 days of culture are passaged to fresh feeders for establishment of cell lines. PGC-derived colonies were dissociated with 0.25% trypsin/1 mM EDTA (Gibco BRL) for 10 minutes. […] To identify PGC-derived cells and the state of differentiation were determined by morphology and by expression of alkaline phosphatase (AP).
AP activity was determined as described previously (Moore and Piedrahita, 1997). Briefly, culture plates were rinsed twice in PBS and fixed in 4% formaldehyde in PBS for 15 minutes at room temperature. Fixed cells were washed twice with PBS and stained in naphtol AS-MX phosphate (200 μg/ml; Sigma) and Fast Red TR salt (1 mg/ml; Sigma) in 100 mM Tris buffer, pH 8.2 for 30 minutes at room temperature. Staining was terminated by washing cultures in PBS. Specificity of AP activity was determined by staining in the presence of the AP inhibitor, tetramisole (500 μM; Sigma). Mouse ES cells also were stained as control for AP activity.
To determine the effect of apoptosis inhibitors on survival of porcine PGCs in vitro, freshly isolated PGCs were cultured as described above with or without apoptosis inhibitors, α2-macroglobulin (MAC: broad range protease inhibitor, 1.4 pM) and N-acetylcysteine (NAC: antioxidant, 1 mM). After 7-10 days of culture, colonies were stained for AP activity and counted. Studies were performed at least three replicates. The data were normalized to the treatment with no inhibitors added (control) and tested for homogeneity of variance and analyzed by ANOVA. Mean separation is accomplished by Fisher's protected LSD using software SuperANOVA (Abacus Concepts).
Dose titration of MAC (0.35, 0.7, 1.4, and 2.8 pM) and NAC (0.25, 0.5, 1.0, and 2.0 mM), to determine the optimal concentration of inhibitors, were performed.

porcine PGCs [3] = experiment: as above
[4] = Table 3 combined effects study: MAC 0.7 pM, NAC 1.0 mM, alone or together, normalized to control

Molecule: CC(=O)N[C@@H](CS)C(=O)O [NAC, N-acetylcysteine]
- 5-day Apoptosis (%) [1]: 1.8%
- 10-day Apoptosis (%) [1]: 1.1%
- Normalized # of Colonies + SE (porcine PGCs [2]; 0.25 mM NAC, normalized to control, Table 2 dose response): 1.23 ± 0.14
- Normalized # of Colonies + SE (porcine PGCs [2]; 0.5 mM NAC, normalized to control, Table 2 dose response): 1.75 ± 0.13
- Normalized # of Colonies + SE (porcine PGCs [2]; 1.0 mM NAC, normalized to control, Table 2 dose response): 2.07 ± 0.19
- Normalized # of Colonies + SE (porcine PGCs [2]; 2.0 mM NAC, normalized to control, Table 2 dose response): 2.21 ± 0.04
- Normalized # of Colonies + SE (porcine PGCs [2]; NAC (1.0 mM) 1-4 days (FH), Table 5 timing study): 2.86 ± 0.55
- Normalized # of Colonies + SE (porcine PGCs [2]; NAC (1.0 mM) 5-8 days (LH), Table 5 timing study): 1.01 ± 0.035
- Normalized # of Colonies + SE (porcine PGCs [2]; NAC (1.0 mM) all 8 days, Table 5 timing study): 2.64 ± 0.49
- Normalized # of Colonies + SE (porcine PGCs [2]; Table 7 antioxidants: NAC 1.0 mM, BHA 0.1 mM, BPN 1.0 mM, CIM 2.0 mM, normalized to control): 1.93 ± 0.10
- Effect of timing of exposure on number of colonies, in words (porcine PGCs [2]): Addition at later days has little effect
- Concentration of maximal response (number of colonies) over the doses studied (porcine PGCs [2]; doses 0.25-2.0 mM studied): 2.0 mM
- Normalized # of Colonies + SE (porcine PGCs [3]; [4]): 2.73 ± 0.03

B1: α2-macroglobulin (protein, UniProt P01023 24-1474, looked up)
Alpha-2-macroglobulin: SVSGKPQYMVLVPSLLHTETTEKGCVLLSYLNETVTVSASLESVRGNRSLFTDLEAENDVLHCVAFAVPKSSSNEEVMFLTVQVKGPTQEFKKRTTVMVKNEDSLVFVQTDKSIYKPGQTVKFRVVSMDENFHPLNELIPLVYIQDPKGNRIAQWQSFQLEGGLKQFSFPLSSEPFQGSYKVVVQKKSGGRTEHPFTVEEFVLPKFEVQVTVPKIITILEEEMNVSVCGLYTYGKPVPGHVTVSICRKYSDASDCHGEDSQAFCEKFSGQLNSHGCFYQQVKTKVFQLKRKEYEMKLHTEAQIQEEGTVVELTGRQSSEITRTITKLSFVKVDSHFRQGIPFFGQVRLVDGKGVPIPNKVIFIRGNEANYYSNATTDEHGLVQFSINTTNVMGTSLTVRVNYKDRSPCYGYQWVSEEHEEAHHTAYLVFSPSKSFVHLEPMSHELPCGHTQTVQAHYILNGGTLLGLKKLSFYYLIMAKGGIVRTGTHGLLVKQEDMKGHFSISIPVKSDIAPVARLLIYAVLPTGDVIGDSAKYDVENCLANKVDLSFSPSQSLPASHAHLRVTAAPQSVCALRAVDQSVLLMKPDAELSASSVYNLLPEKDLTGFPGPLNDQDNEDCINRHNVYINGITYTPVSSTNEKDMYSFLEDMGLKAFTNSKIRKPKMCPQLQQYEMHGPEGLRVGFYESDVMGRGHARLVHVEEPHTETVRKYFPETWIWDLVVVNSAGVAEVGVTVPDTITEWKAGAFCLSEDAGLGISSTASLRAFQPFFVELTMPYSVIRGEAFTLKATVLNYLPKCIRVSVQLEASPAFLAVPVEKEQAPHCICANGRQTVSWAVTPKSLGNVNFTVSAEALESQELCGTEVPSVPEHGRKDTVIKPLLVEPEGLEKETTFNSLLCPSGGEVSEELSLKLPPNVVEESARASVSVLGDILGSAMQNTQNLLQMPYGCGEQNMVLFAPNIYVLDYLNETQQLTPEIKSKAIGYLNTGYQRQLNYKHYDGSYSTFGERYGRNQGNTWLTAFVLKTFAQARAYIFIDEAHITQALIWLSQRQKDNGCFRSSGSLLNNAIKGGVEDEVTLSAYITIALLEIPLTVTHPVVRNALFCLESAWKTAQEGDHGSHVYTKALLAYAFALAGNQDKRKEVLKSLNEEAVKKDNSVHWERPQKPKAPVGHFYEPQAPSAEVEMTSYVLLAYLTAQPAPTSEDLTSATNIVKWITKQQNAQGGFSSTQDTVVALHALSKYGAATFTRTGKAAQVTIQSSGTFSSKFQVDNNNRLLLQQVSLPELPGEYSMKVTGEGCVYLQTSLKYNILPEKEEFPFALGVQTLPQTCDEPKAHTSFQISLSVSYTGSRSASNMAIVDVKMVSGFIPLKPTVKMLERSNHVSRTEVSSNHVLIYLDKVSNQTLSLFFTVLQDVPVRDLKPAIVKVYDYYETDEFAIAEYNAPCSKDLGNA
- 5-day Apoptosis (%) [1]: 3.9%
- 10-day Apoptosis (%) [1]: 4.6%
- Normalized # of Colonies + SE (porcine PGCs [2]; 0.35 pM MAC, normalized to control without inhibitor, Table 1 dose response): 1.43 ± 0.03
- Normalized # of Colonies + SE (porcine PGCs [2]; 0.7 pM MAC, normalized to control, Table 1 dose response): 1.90 ± 0.08
- Normalized # of Colonies + SE (porcine PGCs [2]; 1.40 pM MAC, normalized to control, Table 1 dose response): 1.50 ± 0.01
- Normalized # of Colonies + SE (porcine PGCs [2]; 2.8 pM MAC, normalized to control, Table 1 dose response): 1.16 ± 0.06
- Normalized # of Colonies + SE (porcine PGCs [2]; MAC (0.7 pM) all 8 days, Table 4 timing study): 1.64 ± 0.08
- Number of first passage colonies, in words (porcine PGCs [2]; added to the culture media): increased the number of first passage colonies
- Effect of timing of exposure on number of colonies, in words (porcine PGCs [2]): maximal effects result when MAC is present throughout the incubation period
- Concentration of maximal response (number of colonies) (porcine PGCs [2]; doses 0.35-2.8 pM studied): 0.7 pM
- Effect upon second passage, in words (porcine PGCs [2]; independent of previous culture in the presence of the molecule): protective effect
- Effect on the number of PGCs, in words (porcine PGCs [2]; single concentrations of Tables 6 and 7): induced the most, and significantly, positive effect
- Normalized # of Colonies + SE (porcine PGCs [3]; MAC (0.7 pM) 1-4 days (FH), Table 4 timing study): 1.21 ± 0.05
- Normalized # of Colonies + SE (porcine PGCs [3]; MAC (0.7 pM) 5-8 days (LH), Table 4 timing study): 1.23 ± 0.09
- Normalized # of Colonies + SE (porcine PGCs [3]; [4]): 2.00 ± 0.18
- Normalized # of Colonies + SE (porcine PGCs [3]; Table 6 protease inhibitors: MAC 0.7 pM, PA 50 μM, AEBSF 250 μM, TLCK 100 μM, normalized to control): 1.72 ± 0.15
